Measurements reported in patent US8221990B2, “Screening GPR12 receptor for substances having Nesfatin-1-like action, or which regulate Nesfatin-1 action” (Teijin Pharma Limited, priority 2007, dated 2012).

How the values were obtained:
[1] = target: T1, GPR12 (Mus musculus, UniProt P35412); experiment: Expression of a CRE-reporter gene (pCRE-Luc luciferase) in NB41A3 cells expressing GPR12 endogenously; type: cell-based; settings: NB41A3 cells transfected with pCRE-Luc, 10^-12 M to 10^-8 M, 16 hours
T1 construct: in which GPR12 was endogenously expressed; endogenous in cells; host or cells: NB41A3 cells (ATCC-CCL147), mouse brain neuroblastoma
T1 sequence (P35412 1-334): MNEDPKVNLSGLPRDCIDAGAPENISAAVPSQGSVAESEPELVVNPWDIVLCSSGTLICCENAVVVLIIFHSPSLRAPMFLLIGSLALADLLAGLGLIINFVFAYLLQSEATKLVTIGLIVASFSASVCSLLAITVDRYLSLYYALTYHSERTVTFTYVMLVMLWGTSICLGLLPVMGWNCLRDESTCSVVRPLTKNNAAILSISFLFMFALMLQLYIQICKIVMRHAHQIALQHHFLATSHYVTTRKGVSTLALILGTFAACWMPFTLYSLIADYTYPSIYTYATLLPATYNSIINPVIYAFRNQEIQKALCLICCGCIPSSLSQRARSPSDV
Protocol: NB41A3 cells (ATCC-CCL147), a cell strain derived from mouse brain neuroblastoma, in which GPR12 was endogenously expressed were used. The confluent NB41A3 cells were recovered in a 10-cm dish, plated onto 10 cm-dishes after dividing the cell colony in four quarters, and cultured for one day in Ham's F12K medium. The cells were transected with 5 μg of the reporter plasmid pCRE-Luc (Stratagene Corporation, Catalog No. 219074) in which TATA-BOX and luciferase were incorporated into downstream of CRE by a calcium phosphate method. The cells were washed with Ham's F12K medium 16 hours after the transfection. Ham's F12K medium containing no test substance (Vehicle), Ham's F12K medium containing 10^−10 M of Nesfatin-1 M30 (Mid-Segment: SEQ ID NO: 11), Ham's F12K medium containing 10^−10 M of a modified peptide M30_Ag-A (SEQ ID NO: 50) (M30_Ag-A), and Ham's F12K medium containing 10^−10 M of a modified peptide M30_MSH-A (SEQ ID NO: 51) […] were added to the cells, and the resultant mediums were cultured under the conditions of 37° C. and 5% CO2 for 16 hours. After the culturing, the cells were washed twice with phosphate-buffered saline (PBS), lysed with 4 mL of lysis buffer (an aqueous solution containing 25 mM of glycylglicine (pH 7.8), 15 mM of magnesium sulfate, 4 mM of glycol ether diaminetetraacetic acid (EGTA), 1 mM of dithiothreitol (DTT), and 1% (volume/volume) of Triton X-100). […] After adding 200 μL of 0.2 mM of d-luciferin to the diluted cell lysate, the luminescence was measured for 10 seconds by a luminometer, and the amount of luminescence (units) was determined. Further, the amount of protein in each cell lysate was measured by BCA™ Protein Assay Kit-Reducing Agent Compatible (Pearce, Catalog No. 23250), and the value obtained by dividing the amount of luminescence (units) by the amount of protein (μg) in a sample was determined as a luciferase activity. […] The cells were cultured for 16 hours, and then the level of luciferase activity was also determined.

[2] = target: T2, mouse GPR12 (Mus musculus, UniProt P35412); experiment: cAMP production in CHO-K1-cell stable expression system (CHO-K1-GPR12); type: cell-based; settings: CHO-K1-GPR12, peptide 10^-9 M, Forskolin 10^-5 M, 30 minutes
T2 construct: expressed in transfected cells
T2 sequence (P35412 1-334): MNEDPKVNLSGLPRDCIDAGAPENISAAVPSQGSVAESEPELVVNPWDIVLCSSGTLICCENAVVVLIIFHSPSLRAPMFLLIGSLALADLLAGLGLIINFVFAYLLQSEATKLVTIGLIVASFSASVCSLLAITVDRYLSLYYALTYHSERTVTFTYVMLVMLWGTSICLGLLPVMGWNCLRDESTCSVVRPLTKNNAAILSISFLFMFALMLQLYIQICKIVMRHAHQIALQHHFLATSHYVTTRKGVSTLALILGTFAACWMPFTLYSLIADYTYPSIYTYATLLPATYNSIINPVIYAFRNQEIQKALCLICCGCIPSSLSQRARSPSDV
Protocol: The preparation of cells stably expressing GPR12 was conducted by a conventional method, and hereinafter described briefly. A vector (pcDNA3.1-GPR12) in which a gene (cDNA) encoding mouse GPR12 (SEQ ID NO: 8) was inserted at the downstream of a CMV promoter of pcDNA3.1 (TM) (Invitrogen Corporation) was prepared, 10 μg of the vector was mixed with 250 μL of medium OPTI-MEM™ (Invitrogen Corporation), and 10 μg of Lipofectamine™ 2000 Reagent (Invitrogen Corporation) was mixed with 250 μL of medium OPTI-MEM™, 5 minutes later both mixtures were mixed, and the resultant mixture was left over at room temperature for 20 minutes to prepare a transfection reagent. Chinese hamster ovary cells (CHO-K1) [ATCC Cat. No. CCl-61] plated onto a 6-well plate at 1.5×10^6 cells/well on the previous day in advance were washed with medium OPTI-MEM™ once, and the above-mentioned transfection reagent (vector and Lipofectamine™ 2000 Reagent) was added to the cells dropwise to perform transfection. The resultant transfected cells were incubated at 37° C. for 5 hours in a CO2 incubator, and then the medium was replaced by Ham's F12 medium. Further, the next day the medium was exchanged with Ham's F12 medium containing 100 μg/mL of Geneticin® (Invitrogen Corporation), and furthermore the next day the medium was exchanged with the same medium containing 200 μg/mL of Geneticin®, and the following day the medium was exchanged with the same medium containing 700 μg/mL of Geneticin®, and after that, culturing was continued under the conditions of 37° C. and 5% CO2 in a medium containing Geneticin® at the same concentration. […]
The measured intracellular cAMP level was evaluated in terms of a ratio (Fold) of each intracellular cAMP level with respect to the mean of the intracellular cAMP level in the (−) group that is set as unity, in which CHO-K1-GPR12 cells were cultured in the medium containing no peptide.

[3] = Amount of food intake in a mouse after intraperitoneal administration; type: in vivo; settings: C57BL/6J male mouse, 0.25 nmol per gram of body weight, 0 to 3 hours
Protocol: A 7-week-old C57BL/6J strain male mouse (CLEA Japan, Inc.) was used as an experimental animal. After purchasing the mouse, the mouse was raised at 22° C. in cycles of the 12-hour light period from 6 a.m. to 6 p.m. and the 12-hour dark period from 6 p.m. to 6 a.m. on the next morning with free access to pelleted feed (CLEA Japan, Inc., CE-2).
A 5 nmol aliquot of Nesfatin-1M30 (Mid-segment, SEQ ID NO: 11), M30_Ag-A (SEQ ID NO: 50), or M30_MSH-A (SEQ ID NO: 51) was dissolved in each 100 μL of saline, and each of the resultant solutions was administered intraperitoneally to a C57BL/6J mouse at a dose of 0.25 nmol per gram of body weight of the mouse. In the control group, only saline (Vehicle) was administered. Each mouse (5 mice in each group) was intraperitoneally given a single injection of a sample using a tuberculin syringe with 26 G needle, immediately before the dark period (6 p.m.).
Each mouse administered was placed in an individual cage, and the amount of food intake was determined by measuring the decreased amount of the pelleted feed during the period from 0 to 3 hours after the administration of a test substance. In the mouse administered with each test sample, the amount of food intake during 3 hours after the administration (g/3 h) is shown in FIG. 6.

[4] = target: T3, mGPR12 (Mus musculus, UniProt P35412); experiment: cAMP production in HeLa-cell transient expression system; type: cell-based; set-up: expressed in transfected cells; host or cells: HeLa cells (transient, lipofection); settings: mGPR12-transiently expressing HeLa cells, ligand 10^-6 M
T3 sequence (P35412 1-334): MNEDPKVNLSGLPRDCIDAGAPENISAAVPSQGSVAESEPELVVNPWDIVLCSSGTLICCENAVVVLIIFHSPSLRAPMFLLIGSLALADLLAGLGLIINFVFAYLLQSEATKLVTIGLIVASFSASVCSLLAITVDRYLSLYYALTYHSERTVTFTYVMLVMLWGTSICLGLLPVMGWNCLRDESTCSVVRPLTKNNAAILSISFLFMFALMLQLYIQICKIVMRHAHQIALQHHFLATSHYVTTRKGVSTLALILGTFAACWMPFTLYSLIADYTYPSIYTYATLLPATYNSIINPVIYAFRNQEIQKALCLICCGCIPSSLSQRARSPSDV
Protocol: A GPCR expression vector prepared in Example 4 was introduced into HeLa cells by lipofection and transiently expressed.
HeLa cells were peeled off using trypsin EDTA and recovered, and plated onto a 6-well plate with 7×10^5 cells/2 mL/well to perform overnight culture using a CO2 incubator. The next day, a plasmid solution was prepared by adding 4 μg of plasmid into 250 μL of a serum-free Opti-MEM medium. On the other hand, a Lipofectamine 2000 solution was prepared by adding 10 μL of Lipofectamine 2000 (Invitrogen Corporation) into 250 μL of the serum-free Opti-MEM medium. These solutions were incubated at room temperature for 5 minutes, and the Lipofectamine 2000 solution was added bit by bit into the plasmid solution. The resultant mixture was incubated at room temperature for 20 minutes to prepare a solution for lipofection. […]
The 5× Ligand solution was added at 20 μL/well so that the final concentration may become 10^−6 M, and the plate was incubated in a CO2 incubator for 30 minutes. […] Further, in order to lyse the cells completely, the cells were frozen once at −20° C. and lysed again, and then the intracellular cAMP concentration was measured using cAMP-Screen System (Applied Biosystems, T1500).

M30_Ag-A: human Nesfatin-1M30 with the 11th (Leu) and 13th to 17th residues from the N-terminus substituted with alanine, SEQ ID NO: 50 (PDTGLYYDEYAKAAAAALETDKHFREKLQK; Synthetic M30_Ag-A peptide)
concentration-dependent enhancement of the luciferase activity [1]: not found | intracellular cAMP level compared with the group (-) cultured in medium containing no peptide [2]: hardly elevated | amount of food intake during 3 hours after the administration compared with control group (Vehicle) [3]: no difference

M30_MSH-A: human Nesfatin-1M30 with the 22nd to 25th residues from the N-terminus substituted with alanine, SEQ ID NO: 51 (PDTGLYYDEYLKQVIDVLETDAAAAEKLQK; Synthetic M30_MSH-A peptide)
concentration-dependent enhancement of the luciferase activity [1]: observed | intracellular cAMP level compared with the group (-) cultured in medium containing no peptide [2]: about 10 fold | amount of food intake during 3 hours after the administration compared with control group (Vehicle) [3]: significant decrease of the food intake

B1: mouse Nesfatin-1: recombinant mouse Nesfatin-1 (82 amino acids) expressed in Escherichia coli as a GST-His fusion protein and cleaved by thrombin (protein)
chain: VPIDVDKTKVHNTEPVENARIEPPDTGLYYDEYLKQVIEVLETDPHFREKLQKADIEEIRSGRLSQELDLVSHKVRTRLDEL
cAMP production ([4]; with Forskolin addition (2 μM)): increase in cAMP production was confirmed | cAMP production ([4]; without Forskolin addition): increase in cAMP production was confirmed
